Test results as given in paper PMC6310021 (Science translational medicine, 2018).
Like-named read-outs stand apart in the source and are kept apart here. Blank lines part the entries; values can stand above or below the binder they belong to.

Legend:
[1] = biological target: transgelin-2 (TG2) of rat airway smooth muscle cells (rat (endogenous in rat ASMCs), UniProt Q5XFX0 1-199); assay: radioligand binding
[2] = biological target: T1, purified rat recombinant TG2 protein (transgelin-2) (rat, UniProt Q5XFX0 1-199); assay: SPR
[3] = biological target: T1, purified rat recombinant TG2 protein …; assay: SPR; remark: listed apart in the source

T1 sequence (Q5XFX0 whole entry): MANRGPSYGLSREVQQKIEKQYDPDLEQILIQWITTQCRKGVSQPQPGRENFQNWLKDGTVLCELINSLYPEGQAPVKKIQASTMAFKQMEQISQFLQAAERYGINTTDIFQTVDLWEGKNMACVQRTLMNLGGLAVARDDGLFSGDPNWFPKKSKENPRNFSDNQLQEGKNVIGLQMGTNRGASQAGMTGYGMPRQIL
transgelin-2 (TG2) of rat airway smooth muscle cells, sequence (Q5XFX0 whole entry): as above

Kd [1]: 33.4 nM
B1: 125I-labeled MT-2 (natural protein)
chain: not shown
modifications: 125I label (site not stated)

Kd [2]: 110 nM
Kd [3]: 442 nM
B2: 6×His tag MT-2 recombinant protein (rat metallothionein-2) (natural protein)
chain: not shown
